Source: publication PMC5637921, “An engineered photoswitchable mammalian pyruvate kinase” (The Febs Journal, 2017)

Molecular target: the molecule itself
Assay: SEC; preparative SEC after Ni affinity; HiLoad 16/600 Superdex 200 pg, 0.5 mL/min, 50 mM Tris/HCl pH 7.5, 10 mM MgCl2, 200 mM NaCl, 150 mM KCl, 5% glycerol, 0.5 mM TCEP

B1: mPKM2 internal LOV2 fusion at position D24 (PiL[D24]) (enzyme)
chain: not shown
notes: mouse pyruvate kinase M2 isoform (mPKM2), residues 1-24, amplified from pLHCX-flag-mPKM2; N-terminal part up to Asp24; Avena sativa phototropin 1 (NPH1-1) LOV2 domain, residues 404-540, amplified from plasmid pDS257 (Mid2(SS/TM)-GFP-LOVpep); G528A and N538E of the template were backmutated to wild-type LOV2; numbers count on phototropin 1 (NPH1-1, GenBank AAC05083.1); mouse pyruvate kinase M2 …
- stoichiometry N: 4
